The source of these data is US20190276551A1 (UNIVERSITY MEDICAL CENTER HAMBURG EPPENDORF, published 2019).

The chains are these.
B1: MU523 (VHH)
VHH: DVQLQESGGGLVQAGSSLRISCAVSGVRLDNYAMGWFRQAPGKERESVAGISWSSGTLLYSDSVKGRFAISRDNAKNTVYLQMNSLKPEDTAVYYCAAQYQDRYYDEFTWKEKDMDYWGKGTLVTVSS
notes: His6-Myc-tagged monovalent VHH; also called L-19.1a; I-19.1a
B2: MU415 (VHH)
VHH: VQLQASGGGLVQAGGSLRLSCTVSGFTSDDYTVGWFRQAPGLKREGLSCLSRRDGRFYHSNSVKGRFTMSSDDNKNTVYLQLDSLKPDDTAVYYCAATTSVVVLLAPNWYEYWGQGTQVTVSS
notes: also called L+15; I+15b
B3: MU370 (VHH)
VHH: DVQLQASGGGSVQAGGSLTLSCRYSGGFVFRVSSMGWYRQAPGNQRELIATITVGGKTNYKDSVQGRFIISRNDTTVTLQMNRLQPEDTAVYYCNLASTAVGADTWGQGTRVTVSS
notes: also called I-9.2a
B4: MU274 (VHH)
VHH: DVQLQESGGGLVQAGGSLRLSCAASGVSFSRYTMGWYREVPGKERREFVAAVRPSGDSTYYGNSVKGRFSISRDDDKNIVYLQMNSLKPEDTAVYYCAAGFPVLVALSIADPDYWGQGTQVTVST
notes: also called L-15.2a; I-15.2a
B5: MU397 (VHH)
VHH: DVQLQASGGGLVQAGGSLRLSCAPSGGTFDAYDMGWYREAPGKKRQFVAAVRSGGGTTRYADSVKGRFTISRDDAKDTVFLQMNSLKPEDTALYYCAADRWGLFSLSIATPTHWGQGTQVTVSS
notes: His6-Myc-tagged monovalent VHH; also called L-15.1a; I-15.1a
B6: MU1068 (VHH)
VHH: DVQLQASGGGSVQEGESLKLSCVGSGRTFSDWAMGWYRQAPGKDREFVAAVSGAGRGGKPSYANSVKGRFTVSRDNAKNTVYLQMDNLKPEDTAVYYCAADRLVLVALSIADPGFWGQGTRVTVSS
notes: also called L-15.1b; I-15.1b
B7: Jk46 (VHH)
VHH: QVQLQESGGGLVQAGGSLRLSCAASGRTFSSVAMGWFRQAPGKEREFVATINWSGGRTTYADSVKGRFTISRDSAKNTVYLQMNSLKPEDTAVYYCAADRFSVVAVEYDYWGQGTQVTVSS
notes: His6-Myc-tagged monovalent VHH; also called family 7
B8: MU1103 (VHH)
VHH: DVQLQASGGGLVQAGGSLRLSCAASEFTFDDYVIGWFRQAPGKEREGVSSISSDGSTYYADSVKGRFTISSDNAKNTVYLHMNSLKPEDTAVYYCAADVTLNPFTGWTTRSGPMYRYEYDYWGQGTQVTVSS
notes: His6-Myc-tagged monovalent VHH; also called s-24.1c; family 22
B9: Jk24 (VHH)
VHH: QVQLQESGGGLVQPGGSLRLSCAASGIILRIYDMGWYRQAPGKQRELVAEITSGGSTNYADSVKGRFTISRDNAENTVSLQMNSLKPGDTAVYYCNAHHTFAGAYWGQGTQVTVSS
notes: His6-Myc-tagged monovalent VHH; also called I-8.2c; family 2
B10: Jk31 (VHH)
VHH: QVQLQESGGGLVQPGGSLRLSCAASGIILRLYDMGWYRQTPGKQRELVAEITSGGSTNYADSVKGRFTISRDNAENTVSLQMNSLKSGDTAVYYCNADHTFAGVYWGQGTQVTVSS
notes: His6-Myc-tagged monovalent VHH; also called I-8.2d; family 2
B11: Jk30 (VHH)
VHH: QVQLQESGGGLVQPGGSLRLSCAASGIILRIYDMGWYRQAPGKQRELVAAITSGGRTNYADSVKGRFTISRDNAENTVSLQMNSLKSGDTAVYYCNADHTFAGVYWGQGTQVTVSS
notes: His6-Myc-tagged monovalent VHH; also called I-8.2b; family 2
B12: Jk32 (VHH)
VHH: QVQLQESGGGLVQPGGSLRLSCAASGSTLRLYDMGWYRQADGKQRELVAEITSGGSTNYANSVKGRFTISRDNAENTVSLQMNSLKPEDTAVYYCNAEHTFMGAYWGQGTQVTVSS
notes: His6-Myc-tagged monovalent VHH; also called I-8.2e; family 2
B13: WF129 (VHH)
VHH: DVQLQASGGGLVQAGGSLRLSCEFSGRTFSGFAMGWFRQFPGKEREFVAAINWSGSSVDYSDSVKGRFTISRDNVKSTMYLVMNSLKPEDTAVYYCAEARSAELGSSRKIQGYDQWGRGTQVTVSS
notes: His6-Myc-tagged monovalent VHH; also called I-17.1b; family 18
B14: WF141 (VHH)
VHH: DVQLQASGGGLVQAGGSLRLSCEFSGRTFSGFAMGWFRQFPGKEREFVAAINWSGSSVDYSDSVKGRFTISRDNVKSTMYLVMNSLKPEDTAVYYCAEARSAELGSSRKIQGYDQWGRGTRVTVSS
notes: His6-Myc-tagged monovalent VHH; also called I-17.1c; family 18
B15: JK12 (VHH)
VHH: QVQLQESGGGLVQPGGSLRLSCVASERIFSRNTMGWYRQAPGKQRELVARIASLGITNYADSVKGRFTISSDNAKNTVYLQMNNLKPEDTAVYYCNYWHYAAGRDYWGQGTQVTVSS
notes: His6-Myc-tagged monovalent VHH; also called I-9.1a; family 4
B16: Jk14 (VHH)
VHH: EVQLVESGGGLVQAGGSLRLSCVASERIFSRNTMGWYRQAPGKQRELVARIASLGITNYADSVKGRFTISSDNAKNTVYLQMNNLKPEDTAVYYCNYWHYAAGRDYWGQGTQVTVSS
notes: His6-Myc-tagged monovalent VHH; also called I-9.1b; family 4
B17: Jk42 (VHH)
VHH: QVKLQESGGGLVQPGGSLRLSCVASERIFSRNTMGWYRQAPGKQRELVAYITSLGIANYADSVKGRFTISSDNAKNTVYLQMNNLKSEDTAVYNCNYWHYAAGRDYWGQGTQVTVSS
notes: His6-Myc-tagged monovalent VHH; also called I-9.1d; family 4
B18: MU1065 (VHH)
VHH: DVQLQESGGGLVQAGDSLRLSCAASGPHFNNYAIGWFRQAPGKEREFVAGISWSSGSLLYSDSVKGRFTISRDNDKNTAYLQMNSLKPEDTALYYCAAQYQERYYSDFSLKEKGMEYWGKGTLVTVSS
notes: His6-Myc-tagged monovalent VHH; also called I-19.1b; family 19
B19: Jk20 (VHH)
VHH: QVQLQESGGGLVQAGGSLRLSCAISGRTFIADMGWFRQAPGKEREFQAGITWFGGSTYYADSVKGRFTISRDNTKNTLYLQMNSLKPEDTAIYYCAAGLKRIGDQREADYWGQGTQVTVSS
notes: His6-Myc-tagged monovalent VHH; also called I-13.1a; family 8
B20: Jk26 (VHH)
VHH: QVQLQESGGGLVQAGGSVRLSCAISGRTFINDMGWFRQAPGKEREFQAGITWFGGSTYYADSVKGRFTISRDNTKNTLYLQMNSLKPEDTAIYYCAAGLKRIGDQREADYWGQGTQVTVSS
notes: His6-Myc-tagged monovalent VHH; also called I-13.1b; family 8
B21: Jk27 (VHH)
VHH: EVQLVESGGGLVQAGGSLRLSCAISGRTFIADMGWFRQAPGKEREFQAGITWFGGSTYYADSVKGRFTISRDNTKNTLYLQMNSLKPEDTAIYYCAAGLKRIGDQREADYWGQGTQVTVAS
notes: His6-Myc-tagged monovalent VHH; also called s-13.1a; family 8
B22: Jk34 (VHH)
VHH: QVQLQESGGRLVQPGGSLRLSCAASGRTFSNYAMAWFRQGPGKEREFVAAISAADSTLYADFVKGRFTISRDNAKNTVYLQMNSLKPEDTAVYYCAARWWIAVRAPAEYNYWGQGTQVTVSS
notes: His6-Myc-tagged monovalent VHH; also called I-14.2c; family 11
B23: Jk35 (VHH)
VHH: QVKLQESGGRLVQPGGSLRLSCAASGRTFSNYAMAWFRQGPGKEREFVAAISAADSTLYADFVKGRFTISRDNAKNTVYLQMNSLKPEDTAVYYCAARWWIAVRAPAEYNYWGQGTQVTVSS
notes: His6-Myc-tagged monovalent VHH; also called I-14.2d; family 11
B24: MU727 (VHH)
VHH: DVQLQASGGGLVQAGGSLRLSCAGSGRTFSSYAMGWFRQAPGKEREFVASISWSGSRTNYGVPVKGRFTISRDNAKNTVYLQMSSLKPEDTAVYYCAADRFAVAIGTHDLDYWGQGTQVTVSS
notes: His6-Myc-tagged monovalent VHH; also called s-14.1d; family 9
B25: MU413 (VHH)
VHH: DVQLQASGGGLVQTGDSLTVSCAASGLSFTRYTMGWYREVPGKERREFVAAVKPAGDSAYYGASVKGRFTASRDNAKNTVTLQMNSLKPEDTAIYYCAAGFPVLTALHIADPDYWGQGTQVTVSP
notes: His6-Myc-tagged monovalent VHH; also called I-15.2b; family 13
B26: Jk25 (VHH)
VHH: QVKLQESGGGLVQPGGSLRLSCVASGSISSIITMGWYRQAPGKQREFVARVIIGGSTGYADSVKGRFTISRDNTKNTVYLEMNSLKPEDTAVYYCNAGNPGTSYHYWGQGTQVTVSS
notes: His6-Myc-tagged monovalent VHH; also called I-9.3a; family 6
B27: MU1105 (VHH)
VHH: DVQLQASGGGLVQAGGSLRLSCAASGFTFDDYVIGWFRQAPGKEREGVSSISSSGSIYYADSVKGRFTISSDNAKNTVYLQMNSLKPEDTAVYFCAADVTLNPFTGWDTRSGPMYRYEYDYWGQGTQVTVSS
notes: His6-Myc-tagged monovalent VHH; also called I-24a; I-24.1a
B28: WF32 (VHH)
VHH: QVQLQESGGGLVQAGGSLRLSCAASGIILRIYDMGWYRQAPGKQRELVAAITSGGSTNYADSVKGRFTISRDNAKSMVYLQMNSLKPEDTAVYYCNAWHVFRGNYWGQGTQVTVSS
notes: His6-Myc-tagged monovalent VHH; also called I-8.2f; family 2
B29: WF139 (VHH)
VHH: SGGGLVQAGGSQRLSCAASGHTFSSYSMAWFRQAPGKEREFVAANIMSGTNTYYADSVRGRFTMSRDIAKNTVYLQMNSLKEEDTALYYCAAADRFRGWATWRDDPDQYDYWDQGTQVTVSS
notes: His6-Myc-tagged monovalent VHH; also called s-19b; s-19.1b
B30: WF140 (VHH)
VHH: DVQLQASGGGSVQAGGSLRLSCAASGLSFSDYAMGWFRQEPGKERRFVASIRSSGGTTYAESVKGRFTISRDNAKNTMYLQMNNLKPEDTAVYYCAADRLVITKLSIADPGYWGQGTQVTVSS
notes: also called s-15a; s-15.1a
B31: WF114 (VHH)
VHH: VQLQESGGGLVQAGGSLRLSCAASGFTFDDYVIGWFRQAPGKECEGVSSISNNNSTYYADSVKGRFTIASDNAKNTVYLQMNSLKPEDTAVYYCAADVTLNPFTGWNTRSGPMYRYEYDYWGQGTQVTVSS
notes: His6-Myc-tagged monovalent VHH; also called s+/-24b; s-24.1b

The Kd is the free concentration of one partner at which half of the binding sites on the other are occupied at equilibrium, for simple one-to-one binding. By koff is commonly meant a measure of how fast the partners let go of each other. A low value points to slow dissociation.

The target of one assay is T1, soluble, non-glycosylated, recombinant human CD38 (human, UniProt P28907 43-300, Alexa 647 conjugate).
T1 construct: also called recombinant human non-glycosylated extracellular domain of CD38
Put plainly: micro-scale thermophoresis, n = 2.
Turning to B1, the Kd came out at 3 nM.
For the molecule B2, the Kd was 23 nM.
Regarding B3, the dissociation constant Kd came out at 225 nM.
Same read-out and setting: the value for B4 was 3 nM; that for B5 was 1 nM; that for B6 was 1.38 nM.

Another assay has as its target T2, human CD38 on cells (human, UniProt P28907 1-300).
T2 construct: also called native CD38; CD38 on LP-1 myeloma cells, CD38-transfected NIH-3T3 cells, blood leukocytes, CD38-transfected DC27.10 cells
Put plainly: binding assays of Example 4.
B7: the binding result was “binds”.
The same measure, in the same setting: the value for B8 was “binds”.
Take B9: the binding result is on record as “binds”.
Consider B10, for which the binding result is recorded as “binds”.
B11: the binding result is “binds”.
B12: the binding result was “binds”.
In the case of B13, the binding result is “binds”.
B14: the binding result is recorded as “binds”.
Still for that read-out and setting: to B15 belongs “binds”; to B16, “binds”.
Turning to B17, the binding result is “binds”.
Same read-out and setting: the value for B18 was “binds”; that for B19 was “binds”.
Still for that read-out and setting: to B20 belongs “binds”; to B21, “binds”.
With B22, the binding result is “binds”.
On the same count and under the same terms, the value for B23 was “binds”.
Still for that read-out and setting: the value for B24 was “binds”.
For B25, the binding result is on record as “binds”.
In the case of B26, the binding result was “binds”.

For the next assay, the target named is T3, human CD38 protein immobilised on AR2G biosensor (human, UniProt P28907 43-300, limits assumed).
T3 construct: Construct used on the Octet is not described; also called immobilised human CD38
Put plainly: Octet BLI, immobilised CD38.
For the molecule B27, the koff is < 0.0003 s⁻¹.
Still for that read-out and setting: to B28 belongs 0.00026 s⁻¹; to B29, < 0.00022 s⁻¹; to B30, 0.00054 s⁻¹.
On the same count and under the same terms, the value for B31 was < 0.00014 s⁻¹.
